Patent publication US7235366 (dated 2007)
Changes are numbered by the printed parent chain. Positions of bridges follow the written chain, without caps; N, C: chain ends. No end group written: not given here.

How the values were obtained:
rat mu opioid receptor = molecular target: T1, rat mu opioid receptor (Rattus norvegicus, UniProt P33535); experiment: competition
T1 chain: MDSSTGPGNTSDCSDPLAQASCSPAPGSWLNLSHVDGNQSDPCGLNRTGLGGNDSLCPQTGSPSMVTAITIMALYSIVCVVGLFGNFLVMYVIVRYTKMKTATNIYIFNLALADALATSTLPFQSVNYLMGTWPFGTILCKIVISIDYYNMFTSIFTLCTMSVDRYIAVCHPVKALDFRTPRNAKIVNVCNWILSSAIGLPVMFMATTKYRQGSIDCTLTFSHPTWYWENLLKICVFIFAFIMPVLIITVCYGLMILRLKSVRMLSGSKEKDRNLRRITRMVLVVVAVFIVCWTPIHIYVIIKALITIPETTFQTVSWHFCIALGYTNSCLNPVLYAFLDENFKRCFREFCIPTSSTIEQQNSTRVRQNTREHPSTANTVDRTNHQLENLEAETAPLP

MOP2 = molecular target: T2, MOP2 (Mus musculus); experiment: other (direct radioligand binding)
T2 chain: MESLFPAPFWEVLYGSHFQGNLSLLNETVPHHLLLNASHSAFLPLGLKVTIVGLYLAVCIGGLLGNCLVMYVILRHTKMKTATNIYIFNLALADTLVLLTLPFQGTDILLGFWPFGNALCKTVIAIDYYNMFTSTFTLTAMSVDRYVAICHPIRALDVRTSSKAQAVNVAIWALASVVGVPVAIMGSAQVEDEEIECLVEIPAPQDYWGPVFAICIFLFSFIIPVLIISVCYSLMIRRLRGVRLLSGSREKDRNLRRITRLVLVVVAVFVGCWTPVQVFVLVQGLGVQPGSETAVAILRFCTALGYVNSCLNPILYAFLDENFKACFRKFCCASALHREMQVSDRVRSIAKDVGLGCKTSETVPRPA

[1] = molecular target: T3, mouse delta opioid receptor (mORD1, msl-2) (Mus musculus); experiment: competition
T3 chain: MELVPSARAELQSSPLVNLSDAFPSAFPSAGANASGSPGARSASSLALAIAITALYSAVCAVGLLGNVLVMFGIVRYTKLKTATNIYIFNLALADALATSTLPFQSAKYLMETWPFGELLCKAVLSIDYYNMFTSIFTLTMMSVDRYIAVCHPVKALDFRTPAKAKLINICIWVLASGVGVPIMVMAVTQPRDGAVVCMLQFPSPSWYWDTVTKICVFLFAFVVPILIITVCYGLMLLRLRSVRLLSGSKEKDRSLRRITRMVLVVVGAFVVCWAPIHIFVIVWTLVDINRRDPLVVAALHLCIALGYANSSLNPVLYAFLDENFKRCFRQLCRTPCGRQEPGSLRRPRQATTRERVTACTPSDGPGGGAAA

[2] = molecular target: T4, delta opioid receptor D128N mutant (Mus musculus); experiment: other (direct radioligand binding)
T4 chain: T3 chain with D128N

[3] = molecular target: T5, mouse kappa opioid receptor (mORK1, msl-1) (Mus musculus); experiment: competition
T5 chain: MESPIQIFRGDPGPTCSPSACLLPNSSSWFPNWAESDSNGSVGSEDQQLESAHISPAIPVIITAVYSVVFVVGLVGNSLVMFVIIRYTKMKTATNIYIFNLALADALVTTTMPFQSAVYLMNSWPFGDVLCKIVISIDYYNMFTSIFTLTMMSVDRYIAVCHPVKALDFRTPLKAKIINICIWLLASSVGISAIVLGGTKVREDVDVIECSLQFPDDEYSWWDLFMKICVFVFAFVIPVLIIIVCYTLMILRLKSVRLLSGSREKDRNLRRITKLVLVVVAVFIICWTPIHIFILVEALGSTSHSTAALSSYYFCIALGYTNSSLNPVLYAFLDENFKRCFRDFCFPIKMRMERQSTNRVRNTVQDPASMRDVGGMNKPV

[4] = molecular target: T3, mouse delta opioid receptor (mORD1, …); experiment: competition

B1: beta-Endorphin (protein)
chain: WCLESSQCQDLTTESNLLECIRACKPDLSAETPMFPGNGDEQPLTENPRKYVMGHFRWDRFGRRNSSSSGSSGAGQKREDVSAGEDCGPLPEGGPEPRSDGAKPGPREGKRSYSMEHFRWGKPVGKKRRPVKVYPNGAEDESAEAFPLEFKRELTGQRLREGDGPDGPADDGAGAQADLEHSLLVAAEKKDEGPYRMEHFRWGSPPKDKRYGGFMTSEKSQTPLVTLFKNAIIKNAYKKGE
In the case of B1, the Ki (rat mu opioid receptor) is reported as 1 nM, the binding result (MOP2) is reported as “no binding” and the Ki [1] is reported as 1 nM. B1: no binding [2].

SANSNPAMAPRERKAGCKNFFWKTFTSC (disulfide 17-28 (inferred)) [SRIF] gave an IC50 [3] greater than 1000 nM and an IC50 [4] greater than 1000 nM.
